Publication PMC8922245, “The Structure of the Arabidopsis PEX4-PEX22 Peroxin Complex—Insights Into Ubiquitination at the Peroxisomal Membrane” (Frontiers in Cell and Developmental Biology, 2022)
Substitutions are numbered along the chain they refer to. In names and notes the source's numbering stands. One block for each molecule: values may come before it.

Tests used:
[1] = target: Pex22 (Saccharomyces cerevisiae) (UniProt P39718); details: cited from earlier work
[2] = target: T1, Arabidopsis thaliana PEX22 residues 111-283 (soluble PEX4-interacting domain) (Arabidopsis thaliana, UniProt Q9LSX7 111-283); assay: pull-down; purified fusion cut with PreScission protease; His6-MBP-PEX4 or His6-MBP-pex4^P123L held on Ni-NTA resin, 1 h at 4°C; washed with buffer A (25 mM HEPES pH 8, 300 mM NaCl, 5% glycerol, 1 mM TCEP), eluted with buffer B (500 mM imidazole); SDS-PAGE and Coomassie staining; details: both partners purified
T1 construct: two N-terminal residues left from the PreScission cleavage site (LEVLFQ|GP); Made on one chain with His6-MBP-PEX4 and separated from it by PreScission cleavage; also called At PEX22; source: purified (Ni-NTA), released with PreScission protease
T1 sequence: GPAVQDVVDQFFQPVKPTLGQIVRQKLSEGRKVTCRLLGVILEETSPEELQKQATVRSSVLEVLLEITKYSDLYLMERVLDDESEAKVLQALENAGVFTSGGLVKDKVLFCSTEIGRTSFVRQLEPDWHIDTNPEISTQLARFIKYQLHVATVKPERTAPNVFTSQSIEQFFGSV

[3] = target: T1, Arabidopsis thaliana PEX22 residues …; assay: crystal structure; PEX4-PEX22^111-283 complex from the cleaved fusion, 20 mg/mL in 20 mM Tris pH 7.5, 200 mM NaCl, 1 mM DTT; sitting drop vapor diffusion at 20°C; 100 mM NaCl, 100 mM Bis-Tris Propane pH 9.0, 25% (w/v) PEG 1,500; details: both partners purified

Pex22 (Saccharomyces cerevisiae), sequence (P39718 whole entry, the tested form may be a part): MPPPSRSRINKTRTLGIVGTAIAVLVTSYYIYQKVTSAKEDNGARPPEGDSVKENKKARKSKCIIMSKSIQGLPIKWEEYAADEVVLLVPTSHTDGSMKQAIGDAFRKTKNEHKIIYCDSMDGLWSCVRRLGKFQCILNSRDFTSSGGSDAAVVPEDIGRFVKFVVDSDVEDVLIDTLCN

Molecule: Pex4 (from UniProt P29340)
Kd [1]: 2 nM

binding result [2]: binds
B1: His6-MBP-PEX4 (Arabidopsis thaliana PEX4, full-length, after PreScission cleavage of the fusion) (enzyme)
chain: MQASRARLFKEYKEVQREKVADPDIQLICDDTNIFKWTALIKGPSETPYEGGVFQLAFSVPEPYPLQPPQVRFLTKIFHPNVHFKTGEICLDILKNAWSPAWTLQSVCRAIIALMAHPEPDSPLNCDSGNLLRSGDVRGFNSMAQMYTRLAAMPKKGLEVLFQ
notes: PEX4 (UBC21), Arabidopsis thaliana, At5g25760, full-length without stop codon; C-terminal residues left from the PreScission cleavage site (LEVLFQ|GP); His6-MBP is joined to PEX4 by a linker with an uncut TEV site (ENLYFQ|S); source: purified (Ni-NTA), cleaved with PreScission protease only; not shown: His6, N-terminal, kept; MBP, N-terminal, kept

binding result [2]: binds
B2: His6-MBP-pex4^P123L (pex4-1 protein, after PreScission cleavage of the fusion) (enzyme, Arabidopsis thaliana)
chain: B1 chain with P123L
notes: PEX4 (UBC21), Arabidopsis thaliana, At5g25760, full-length without stop codon, with the pex4-1 missense change P123L; C-terminal residues left from the PreScission cleavage site (LEVLFQ|GP); pex4-1 is a missense allele isolated in a forward-genetic screen; His6-MBP is joined by a linker with an uncut TEV site (ENLYFQ|S); source: purified (Ni-NTA), cleaved with PreScission protease only; not …

binding result [3]: binds
B3: Arabidopsis thaliana PEX4 (full-length, His6-MBP removed) (enzyme)
chain: SMQASRARLFKEYKEVQREKVADPDIQLICDDTNIFKWTALIKGPSETPYEGGVFQLAFSVPEPYPLQPPQVRFLTKIFHPNVHFKTGEICLDILKNAWSPAWTLQSVCRAIIALMAHPEPDSPLNCDSGNLLRSGDVRGFNSMAQMYTRLAAMPKKGLEVLFQ
notes: one residue left after the TEV protease cleavage site (ENLYFQ|S); residue 0 at the N-terminus; PEX4 (UBC21), Arabidopsis thaliana, At5g25760, full-length without stop codon, residues 1-157; six C-terminal residues left from the PreScission cleavage site (LEVLFQ|GP); residues 158-163; Model in PDB 6XOD holds residues 1-154; residue 0, 155-157 and 158-163 were disordered; also called At PEX4; …
